Assay results taken from ChEMBL document CHEMBL1212772.

How the values were obtained:
[1] = substrate: C[C@@H](O)[C@H]1C(=O)N2C(C(=O)O)=C(S[C@@H]3CN[C@H](C(=O)N(C)C)C3)[C@H](C)[C@H]12; assay: (§1) Kcat/Km ratio of Serratia marcescens SME-3
[2] = substrate: C[C@@H](O)[C@H]1C(=O)N2C(C(=O)O)=C(S[C@@H]3CN[C@H](CNS(N)(=O)=O)C3)[C@H](C)[C@H]12; assay: as §1
[3] = substrate: C[C@@H](O)[C@H]1C(=O)N2C(C(=O)O)=C(SCCNC=N)C[C@H]12; assay: as §1
[4] = substrate: C[C@@H](O)[C@H]1C(=O)N2C(C(=O)O)=C(S[C@@H]3CN[C@H](C(=O)N(C)C)C3)[C@H](C)[C@H]12; assay: (§2) Activity of Serratia marcescens SME-3
[5] = substrate: C[C@@H](O)[C@H]1C(=O)N2C(C(=O)O)=C(S[C@@H]3CN[C@H](CNS(N)(=O)=O)C3)[C@H](C)[C@H]12; assay: as §2
[6] = substrate: C[C@@H](O)[C@H]1C(=O)N2C(C(=O)O)=C(SCCNC=N)C[C@H]12; assay: as §2
[7] = substrate: O=C(Cc1cccs1)N[C@@H]1C(=O)N2C(C(=O)[O-])=C(C[n+]3ccccc3)CS[C@H]12; assay: (§3) Kcat/Km ratio of Pseudomonas aeruginosa OXA-10
[8] = substrate: CC1(C)S[C@@H]2[C@H](NC(=O)Cc3ccccc3)C(=O)N2[C@H]1C(=O)O; assay: as §3
[9] = substrate: C[C@@H](O)[C@H]1C(=O)N2C(C(=O)O)=C(S[C@@H]3CN[C@H](C(=O)N(C)C)C3)[C@H](C)[C@H]12; assay: (§4) Activity of Pseudomonas aeruginosa OXA-10
[10] = substrate: C[C@@H](O)[C@H]1C(=O)N2C(C(=O)O)=C(S[C@@H]3CN[C@H](CNS(N)(=O)=O)C3)[C@H](C)[C@H]12; assay: as §4
[11] = substrate: CC(C)(O/N=C(\C(=O)N[C@@H]1C(=O)N2C(C(=O)[O-])=C(C[n+]3ccccc3)CS[C@H]12)c1csc(N)n1)C(=O)O; assay: as §4
[12] = substrate: O=C(Cc1cccs1)N[C@@H]1C(=O)N2C(C(=O)[O-])=C(C[n+]3ccccc3)CS[C@H]12; assay: as §4
[13] = substrate: CC1(C)S[C@@H]2[C@H](NC(=O)Cc3ccccc3)C(=O)N2[C@H]1C(=O)O; assay: as §4
[14] = substrate: C[C@@H](O)[C@H]1C(=O)N2C(C(=O)O)=C(SCCNC=N)C[C@H]12; assay: as §4
[15] = substrate: C[C@@H](O)[C@H]1C(=O)N2C(C(=O)O)=C(S[C@@H]3CN[C@H](C(=O)N(C)C)C3)[C@H](C)[C@H]12; assay: (§5) Activity of Escherichia coli CTX-M-15
[16] = substrate: C[C@@H](O)[C@H]1C(=O)N2C(C(=O)O)=C(S[C@@H]3CN[C@H](CNS(N)(=O)=O)C3)[C@H](C)[C@H]12; assay: as §5
[17] = substrate: C[C@@H](O)[C@H]1C(=O)N2C(C(=O)O)=C(SCCNC=N)C[C@H]12; assay: as §5
[18] = substrate: C[C@@H](O)[C@H]1C(=O)N2C(C(=O)O)=C(S[C@@H]3CN[C@H](C(=O)N(C)C)C3)[C@H](C)[C@H]12; details: Escherichia coli
[19] = substrate: C[C@@H](O)[C@H]1C(=O)N2C(C(=O)O)=C(S[C@@H]3CN[C@H](CNS(N)(=O)=O)C3)[C@H](C)[C@H]12; details: Escherichia coli
[20] = substrate: C[C@@H](O)[C@H]1C(=O)N2C(C(=O)O)=C(SCCNC=N)C[C@H]12; details: Escherichia coli
[21] = substrate: C[C@@H](O)[C@H]1C(=O)N2C(C(=O)O)=C(S[C@@H]3CN[C@H](C(=O)N(C)C)C3)[C@H](C)[C@H]12; assay: (§6) Activity of Enterobacter cloacae AmpC
[22] = substrate: C[C@@H](O)[C@H]1C(=O)N2C(C(=O)O)=C(S[C@@H]3CN[C@H](CNS(N)(=O)=O)C3)[C@H](C)[C@H]12; assay: as §6
[23] = substrate: C[C@@H](O)[C@H]1C(=O)N2C(C(=O)O)=C(SCCNC=N)C[C@H]12; assay: as §6
[24] = substrate: C[C@@H](O)[C@H]1C(=O)N2C(C(=O)O)=C(S[C@@H]3CN[C@H](C(=O)N(C)C)C3)[C@H](C)[C@H]12; assay: (§7) Kcat/Km ratio of Enterobacter cloacae AmpC
[25] = substrate: C[C@@H](O)[C@H]1C(=O)N2C(C(=O)O)=C(S[C@@H]3CN[C@H](CNS(N)(=O)=O)C3)[C@H](C)[C@H]12; assay: as §7
[26] = substrate: C[C@@H](O)[C@H]1C(=O)N2C(C(=O)O)=C(SCCNC=N)C[C@H]12; assay: as §7
[27] = substrate: C[C@@H](O)[C@H]1C(=O)N2C(C(=O)O)=C(S[C@@H]3CN[C@H](C(=O)N(C)C)C3)[C@H](C)[C@H]12; assay: (§8) Kcat/Km ratio of Klebsiella pneumoniae KPC-2
[28] = substrate: C[C@@H](O)[C@H]1C(=O)N2C(C(=O)O)=C(S[C@@H]3CN[C@H](CNS(N)(=O)=O)C3)[C@H](C)[C@H]12; assay: as §8
[29] = substrate: CC(C)(O/N=C(\C(=O)N[C@@H]1C(=O)N2C(C(=O)[O-])=C(C[n+]3ccccc3)CS[C@H]12)c1csc(N)n1)C(=O)O; assay: as §8
[30] = substrate: O=C(Cc1cccs1)N[C@@H]1C(=O)N2C(C(=O)[O-])=C(C[n+]3ccccc3)CS[C@H]12; assay: as §8
[31] = substrate: CC1(C)S[C@@H]2[C@H](NC(=O)Cc3ccccc3)C(=O)N2[C@H]1C(=O)O; assay: as §8
[32] = substrate: C[C@@H](O)[C@H]1C(=O)N2C(C(=O)O)=C(SCCNC=N)C[C@H]12; assay: as §8
[33] = substrate: C[C@@H](O)[C@H]1C(=O)N2C(C(=O)O)=C(S[C@@H]3CN[C@H](C(=O)N(C)C)C3)[C@H](C)[C@H]12; assay: (§9) Activity of Klebsiella pneumoniae KPC-2
[34] = substrate: C[C@@H](O)[C@H]1C(=O)N2C(C(=O)O)=C(S[C@@H]3CN[C@H](CNS(N)(=O)=O)C3)[C@H](C)[C@H]12; assay: as §9
[35] = substrate: CC(C)(O/N=C(\C(=O)N[C@@H]1C(=O)N2C(C(=O)[O-])=C(C[n+]3ccccc3)CS[C@H]12)c1csc(N)n1)C(=O)O; assay: as §9
[36] = substrate: O=C(Cc1cccs1)N[C@@H]1C(=O)N2C(C(=O)[O-])=C(C[n+]3ccccc3)CS[C@H]12; assay: as §9
[37] = substrate: CC1(C)S[C@@H]2[C@H](NC(=O)Cc3ccccc3)C(=O)N2[C@H]1C(=O)O; assay: as §9
[38] = substrate: C[C@@H](O)[C@H]1C(=O)N2C(C(=O)O)=C(SCCNC=N)C[C@H]12; assay: as §9

B1: Carbapenem-hydrolyzing beta-lactamase SME-3 (Serratia marcescens), Q6PRG8 (protein)
chain: MSNKVNFKTASFLFSVCLALSAFNAHANKSDAAAKQIKKLEEDFDGRIGVFAIDTGSGNTFGYRSDERFPLCSSFKGFLAAAVLERVQQKKLDINQKVKYESRDLEYYSPITTKYKGSGMTLGDMASAALQYSDNGATNIIMERFLGGPEGMTKFMRSIGDNEFRLDRWELELNTAIPGDKRDTSTPKAVANSLNKLALGNVLNAKVKAIYQNWLKGNTTGDARIRASVPADWVVGDKTGSCGAYGTANDYAVIWPKNRAPLIVSIYTTRKSKDDKHSDKTIAEASRIAIQAID
kcat/Km [1]: 550000 M⁻¹ s⁻¹
kcat/Km [2]: 300000 M⁻¹ s⁻¹
kcat/Km [3]: 2.5e+06 M⁻¹ s⁻¹
Km [4]: 5.8 µM
kcat [4]: 3.2 s⁻¹
Km [5]: 8.2 µM
kcat [5]: 2.5 s⁻¹
Km [6]: 150 µM
kcat [6]: 370 s⁻¹

B2: Beta-lactamase OXA-10 (Pseudomonas aeruginosa), P14489 (protein)
chain: MKTFAAYVIIACLSSTALAGSITENTSWNKEFSAEAVNGVFVLCKSSSKSCATNDLARASKEYLPASTFKIPNAIIGLETGVIKNEHQVFKWDGKPRAMKQWERDLTLRGAIQVSAVPVFQQIAREVGEVRMQKYLKKFSYGNQNISGGIDKFWLEGQLRISAVNQVEFLESLYLNKLSASKENQLIVKEALVTEAAPEYLVHSKTGFSGVGTESNPGVAWWVGWVEKETEVYFFAFNMDIDNESKLPLRKSIPTKIMESEGIIGG
kcat/Km [7]: 80000 M⁻¹ s⁻¹
kcat/Km [8]: 1.1e+07 M⁻¹ s⁻¹
kcat [9]: < 0.005 s⁻¹
kcat [10]: < 0.0073 s⁻¹
kcat [11]: < 0.0095 s⁻¹
Km [12]: 200 µM
kcat [12]: 16 s⁻¹
Km [13]: 7.9 µM
kcat [13]: 86 s⁻¹
kcat [14]: < 0.014 s⁻¹

B3: Beta-lactamase CTX-M (Escherichia coli), Q9EXV5 (protein)
chain: MVKKSLRQFTLMATATVTLLLGSVPLYAQTADVQQKLAELERQSGGRLGVALINTADNSQILYRADERFAMCSTSKVMAAAAVLKKSESEPNLLNQRVEIKKSDLVNYNPIAEKHVNGTMSLAELSAAALQYSDNVAMNKLIAHVGGPASVTAFARQLGDETFRLDRTEPTLNTAIPGDPRDTTSPRAMAQTLRNLTLGKALGDSQRAQLVTWMKGNTTGAASIQAGLPASWVVGDKTGSGGYGTTNDIAVIWPKDRAPLILVTYFTQPQPKAESRRDVLASAAKIVTDGL
Km [15]: 11 µM
kcat [15]: 0.0042 s⁻¹
Km [16]: 7.1 µM
kcat [16]: 0.0018 s⁻¹
Km [17]: 120 µM
kcat [17]: 0.17 s⁻¹
kcat/Km [18]: 380 M⁻¹ s⁻¹
kcat/Km [19]: 250 M⁻¹ s⁻¹
kcat/Km [20]: 1400 M⁻¹ s⁻¹

B4: Beta-lactamase (Enterobacter cloacae), P05364 (protein)
chain: MMRKSLCCALLLGISCSALATPVSEKQLAEVVANTITPLMKAQSVPGMAVAVIYQGKPHYYTFGKADIAANKPVTPQTLFELGSISKTFTGVLGGDAIARGEISLDDAVTRYWPQLTGKQWQGIRMLDLATYTAGGLPLQVPDEVTDNASLLRFYQNWQPQWKPGTTRLYANASIGLFGALAVKPSGMPYEQAMTTRVLKPLKLDHTWINVPKAEEAHYAWGYRDGKAVRVSPGMLDAQAYGVKTNVQDMANWVMANMAPENVADASLKQGIALAQSRYWRIGSMYQGLGWEMLNWPVEANTVVEGSDSKVALAPLPVAEVNPPAPPVKASWVHKTGSTGGFGSYVAFIPEKQIGIVMLANTSYPNPARVEAAYHILEALQ
Km [21]: 9.8 µM
kcat [21]: 0.00031 s⁻¹
Km [22]: 9.6 µM
kcat [22]: 0.00043 s⁻¹
Km [23]: 24 µM
kcat [23]: 0.012 s⁻¹
kcat/Km [24]: 32 M⁻¹ s⁻¹
kcat/Km [25]: 45 M⁻¹ s⁻¹
kcat/Km [26]: 500 M⁻¹ s⁻¹

B5: Carbapenem-hydrolyzing beta-lactamase KPC (Klebsiella pneumoniae), Q9F663 (protein)
chain: MSLYRRLVLLSCLSWPLAGFSATALTNLVAEPFAKLEQDFGGSIGVYAMDTGSGATVSYRAEERFPLCSSFKGFLAAAVLARSQQQAGLLDTPIRYGKNALVPWSPISEKYLTTGMTVAELSAAAVQYSDNAAANLLLKELGGPAGLTAFMRSIGDTTFRLDRWELELNSAIPGDARDTSSPRAVTESLQKLTLGSALAAPQRQQFVDWLKGNTTGNHRIRAAVPADWAVGDKTGTCGVYGTANDYAVVWPTGRAPIVLAVYTRAPNKDDKHSEAVIAAAARLALEGLGVNGQ
kcat/Km [27]: 280000 M⁻¹ s⁻¹
kcat/Km [28]: 340000 M⁻¹ s⁻¹
kcat/Km [29]: 1700 M⁻¹ s⁻¹
kcat/Km [30]: 760000 M⁻¹ s⁻¹
kcat/Km [31]: 2e+06 M⁻¹ s⁻¹
kcat/Km [32]: 340000 M⁻¹ s⁻¹
Km [33]: 13 µM
kcat [33]: 3.6 s⁻¹
Km [34]: 1.6 µM
kcat [34]: 0.55 s⁻¹
Km [35]: 230 µM
kcat [35]: 0.38 s⁻¹
Km [36]: 510 µM
kcat [36]: 390 s⁻¹
Km [37]: 30 µM
kcat [37]: 60 s⁻¹
Km [38]: 90 µM
kcat [38]: 31 s⁻¹
